Patent US20200231693A1 (Janssen / Centocor, published 2020)

What was measured:
human OX40 (CD134) = biological target: T1, human OX40 (CD134) (human, UniProt P43489 29-277); experiment: NanoBRET PPI assay on HEK-Blue: OX40 cells (discussion)
T1 construct: also called HEK-Blue: OX40 cells; transfected OX40 receptor
T1 sequence: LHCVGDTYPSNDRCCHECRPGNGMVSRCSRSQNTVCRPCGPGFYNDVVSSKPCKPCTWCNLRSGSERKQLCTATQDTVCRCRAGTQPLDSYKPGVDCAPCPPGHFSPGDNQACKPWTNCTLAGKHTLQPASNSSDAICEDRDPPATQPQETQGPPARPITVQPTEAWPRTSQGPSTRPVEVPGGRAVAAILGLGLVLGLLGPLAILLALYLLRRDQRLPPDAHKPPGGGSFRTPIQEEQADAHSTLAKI
Protocol: The next day, equal concentrations of Nanoluc-tagged antibody (donor) and Halotag-tagged antibody (acceptor) in 50 μl assay medium (Opti-MEM I reduced serum medium, no phenol red plus 4% FBS) were applied to the cells. Halotag 618 ligand diluted 1:1000 in 50 μl assay medium were added in experimental well, and a no ligand control well was also set up by diluting DMSO 1:1000 in assay medium. After incubation at 37° C. for 30 min, the cells were washed twice with assay medium and resuspended in 100 μl assay medium. 25 μl Nano-Glo substrate, diluted 1:200 in assay medium without FBS, was added to each well. After shaking for 30 seconds, the donor emission (460 nm) and acceptor emission (618 nm) were measured by Envision. Raw NanoBRET ratio values with milliBRET units (mBU) were calculated as RawBRET=618 nmEm/460 nmEm*1000. To factor in donor-contributed background or bleed through, Corrected NanoBRET ratio values with milliBRET units was calculated as CorrectedBRET=RawBRETₑₓₚₑᵣᵢₘₑₙₜₐₗ sample−RawBRET_{no-ligand control sample}, which reflects energy transfer from a bioluminescent protein donor to a fluorescent protein acceptor due to protein-protein interactions.
To evaluate whether the engineered antibodies multimerize upon binding antigens at the cell surface a NanoBRET™ protein-protein interaction (PPI) assay was conducted. This assay is a proximity-based assay that detects protein-protein interactions by measuring energy transfer from a bioluminescent protein donor to a fluorescent protein acceptor. […] NanoBRET PPI assays were performed by applying the donor and acceptor antibodies to HEK-Blue: OX40 cells and the calculated corrected NanoBRET ratios reflect the association of multimerized antibody.

human FcγRI (NM_000566) = human FcγRI (NM_000566) (human, UniProt P12314 16-374); experiment: flow cytometry on Expi293F cells transfected with FcγRI
Protocol: (§1) Plasmids expressing cDNAs encoding human FcγRI (NM_000566) (SEQ ID NO: 59), FcγRIIA (NM_021642) (SEQ ID NO: 60), FcγRIIB (NM_004001) (SEQ ID NO: 61), and FcγRIIIA (NM_000569) (SEQ ID NO: 62) (Origene) were transiently transfected into Expi293F cells by Expifectmine293 transfection kit (Life Technologies). Flow cytometry assays were performed 48 h after transfection.
(§2) 2×10⁵ cells per well were seeded in 96-well plate and blocked in BSA Stain Buffer (BD Biosciences, San Jose, USA) for 30 min at 4° C. Cells were incubated with test antibody on ice for 1.5 hour at 4° C. After being washed twice with BSA stain buffer, the cells were incubated with R-PE labeled anti-human or anti-mouse IgG secondary antibody (Jackson Immunoresearch Laboratories) for 45 min at 4° C. […] PE and DRAQ7 signals of the stained cells were detected by Miltenyi MACSQuant flow cytometer (Miltenyi Biotec, Auburn, USA) using B2 and B4 channel respectively. Live cells were gated on DRAQ7 exclusion and the geometric mean fluorescence signals were determined for at least 10,000 live events collected. […] Data was plotted as the logarithm of antibody concentration versus mean fluorescence signals. Nonlinear regression analysis was performed by GraphPad Prism 6 (GraphPad Software, Inc.) and EC₅₀ values were calculated.

[1] = biological target: human FcγRIIIA (NM_000569) (human, UniProt P08637 17-254); experiment: flow cytometry on Expi293F cells transfected with FcγRIIIA
Protocol: as §1
(§3) 2×10⁵ cells per well were seeded in 96-well plate and blocked in BSA Stain Buffer (BD Biosciences, San Jose, USA) for 30 min at 4° C. Cells were incubated with test antibody on ice for 1.5 hour at 4° C. After being washed twice with BSA stain buffer, the cells were incubated with R-PE labeled anti-human or anti-mouse IgG secondary antibody (Jackson Immunoresearch Laboratories) for 45 min at 4° C. The cells were washed twice in stain buffer and then resuspended in 150 μL of Stain Buffer containing 1:200 diluted DRAQ7 live/dead stain (Cell Signaling Technology, Danvers, USA). PE and DRAQ7 signals of the stained cells were detected by Miltenyi MACSQuant flow cytometer (Miltenyi Biotec, Auburn, USA) using B2 and B4 channel respectively. Live cells were gated on DRAQ7 exclusion and the geometric mean fluorescence signals were determined for at least 10,000 live events collected. FlowJo software (Tree Star) was used for analysis. Data was plotted as the logarithm of antibody concentration versus mean fluorescence signals. Nonlinear regression analysis was performed by GraphPad Prism 6 (GraphPad Software, Inc.) and EC₅₀ values were calculated.

[2] = biological target: the molecule itself; experiment: SEC, self-association in solution
[3] = biological target: T2, human FcγRIIB (NM_004001) (human, UniProt P31994 43-310); experiment: binding to transfected Expi293F cells (data not shown)
T2 construct: also called FcγRIIB expressed on transfected Expi293F cells
T2 sequence: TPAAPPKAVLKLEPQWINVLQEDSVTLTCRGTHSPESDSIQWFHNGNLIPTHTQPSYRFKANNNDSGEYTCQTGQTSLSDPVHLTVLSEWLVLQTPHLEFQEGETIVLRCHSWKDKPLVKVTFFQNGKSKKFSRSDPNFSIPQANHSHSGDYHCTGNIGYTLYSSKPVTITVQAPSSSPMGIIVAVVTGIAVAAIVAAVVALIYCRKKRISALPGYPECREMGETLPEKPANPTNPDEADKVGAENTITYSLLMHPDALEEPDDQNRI

FcγRIIB on Raji cells = biological target: T3, FcγRIIB on Raji cells (human, UniProt P31994 43-310); experiment: cell-based or functional assay
T3 sequence (looked up): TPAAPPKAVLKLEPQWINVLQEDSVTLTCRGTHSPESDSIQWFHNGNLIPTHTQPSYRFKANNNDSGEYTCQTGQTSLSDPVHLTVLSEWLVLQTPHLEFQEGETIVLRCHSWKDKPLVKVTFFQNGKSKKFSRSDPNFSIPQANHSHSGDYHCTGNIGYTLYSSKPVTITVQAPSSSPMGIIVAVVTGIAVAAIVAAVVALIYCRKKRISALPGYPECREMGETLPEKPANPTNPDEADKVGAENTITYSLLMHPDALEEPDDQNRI

[4] = biological target: T2, human FcγRIIB (NM_004001); experiment: flow cytometry on Expi293F cells transfected with FcγRIIB
Protocol: as §1, §3

[5] = biological target: T4, human FcγRIIA (NM_021642) (human, UniProt P12318 36-317); experiment: flow cytometry on Expi293F cells transfected with FcγRIIA (R131 allotype per text)
T4 construct: also called FcγRIIA^R131; R131 allotype of FcγRIIA
T4 sequence: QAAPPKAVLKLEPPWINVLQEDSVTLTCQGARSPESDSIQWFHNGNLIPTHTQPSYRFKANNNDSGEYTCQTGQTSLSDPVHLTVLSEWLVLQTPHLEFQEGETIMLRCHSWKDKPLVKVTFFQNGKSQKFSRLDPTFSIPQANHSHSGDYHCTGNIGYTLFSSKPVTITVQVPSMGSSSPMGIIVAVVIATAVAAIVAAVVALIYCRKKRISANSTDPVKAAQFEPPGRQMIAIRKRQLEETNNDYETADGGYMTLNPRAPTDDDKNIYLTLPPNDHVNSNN
Protocol: as §1, §2

Sequence of human FcγRIIIA (NM_000569) (P08637 17-254 limits assumed): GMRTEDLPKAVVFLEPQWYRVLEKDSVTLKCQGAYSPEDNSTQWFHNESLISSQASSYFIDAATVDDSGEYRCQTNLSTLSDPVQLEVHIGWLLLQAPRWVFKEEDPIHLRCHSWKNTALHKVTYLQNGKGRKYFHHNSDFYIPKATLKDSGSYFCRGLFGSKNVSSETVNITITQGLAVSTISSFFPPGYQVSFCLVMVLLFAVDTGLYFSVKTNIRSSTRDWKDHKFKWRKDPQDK
Sequence of human FcγRI (NM_000566) (P12314 16-374 limits assumed): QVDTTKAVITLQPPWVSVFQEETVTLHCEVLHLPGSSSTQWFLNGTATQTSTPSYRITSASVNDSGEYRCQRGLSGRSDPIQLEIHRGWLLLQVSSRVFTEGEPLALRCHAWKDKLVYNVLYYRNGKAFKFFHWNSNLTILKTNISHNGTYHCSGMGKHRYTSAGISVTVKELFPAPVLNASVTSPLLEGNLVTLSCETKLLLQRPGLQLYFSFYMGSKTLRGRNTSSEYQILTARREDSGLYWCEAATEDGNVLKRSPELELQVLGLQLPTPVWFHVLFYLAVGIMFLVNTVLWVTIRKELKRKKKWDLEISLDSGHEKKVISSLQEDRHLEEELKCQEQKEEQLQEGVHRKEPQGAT

B1: OX40SF2IgG1E345R/E430G (antibody)
heavy: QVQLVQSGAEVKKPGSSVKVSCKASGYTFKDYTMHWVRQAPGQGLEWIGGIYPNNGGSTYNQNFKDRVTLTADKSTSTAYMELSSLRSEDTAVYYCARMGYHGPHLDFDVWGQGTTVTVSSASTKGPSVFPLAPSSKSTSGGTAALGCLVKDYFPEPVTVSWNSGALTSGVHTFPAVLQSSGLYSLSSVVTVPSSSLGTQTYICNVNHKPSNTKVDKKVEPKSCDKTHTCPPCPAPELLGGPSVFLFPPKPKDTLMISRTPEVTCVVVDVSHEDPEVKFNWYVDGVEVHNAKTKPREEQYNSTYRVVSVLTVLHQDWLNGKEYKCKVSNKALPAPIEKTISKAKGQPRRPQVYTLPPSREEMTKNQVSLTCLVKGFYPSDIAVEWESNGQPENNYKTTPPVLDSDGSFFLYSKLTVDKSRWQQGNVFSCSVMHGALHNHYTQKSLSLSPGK
VL: DIQMTQSPSSLSASVGDRVTITCKASQDVGAAVAWYQQKPGKAPKLLIYWASTRHTGVPSRFSGSGSGTDFTLTISSLQPEDFATYYCQQYINYPLTFGGGTKVEIK
notes: Full IgG1; In the NanoBRET assay the light chains carried a C-terminal Nanoluc or HaloTag
B1: binds (human OX40 (CD134)).

B2: OX40SF2IgG1 (antibody)
heavy: not shown
VL: DIQMTQSPSSLSASVGDRVTITCKASQDVGAAVAWYQQKPGKAPKLLIYWASTRHTGVPSRFSGSGSGTDFTLTISSLQPEDFATYYCQQYINYPLTFGGGTKVEIK
notes: Full IgG1, wild-type Fc; also called SF2 antibody with native human IgG1 Fc; wild-type IgG1
With B2 the EC50 (human FcγRI (NM_000566)) was 0.326 µg/mL, the EC50 [1] was 0.744 µg/mL and the binding result [2] was “no binding”.

B3: OX40SF2IgG1E345R/E430G/S440Y (antibody)
heavy: QVQLVQSGAEVKKPGSSVKVSCKASGYTFKDYTMHWVRQAPGQGLEWIGGIYPNNGGSTYNQNFKDRVTLTADKSTSTAYMELSSLRSEDTAVYYCARMGYHGPHLDFDVWGQGTTVTVSSASTKGPSVFPLAPSSKSTSGGTAALGCLVKDYFPEPVTVSWNSGALTSGVHTFPAVLQSSGLYSLSSVVTVPSSSLGTQTYICNVNHKPSNTKVDKKVEPKSCDKTHTCPPCPAPELLGGPSVFLFPPKPKDTLMISRTPEVTCVVVDVSHEDPEVKFNWYVDGVEVHNAKTKPREEQYNSTYRVVSVLTVLHQDWLNGKEYKCKVSNKALPAPIEKTISKAKGQPRRPQVYTLPPSREEMTKNQVSLTCLVKGFYPSDIAVEWESNGQPENNYKTTPPVLDSDGSFFLYSKLTVDKSRWQQGNVFSCSVMHGALHNHYTQKYLSLSPGK
VL: DIQMTQSPSSLSASVGDRVTITCKASQDVGAAVAWYQQKPGKAPKLLIYWASTRHTGVPSRFSGSGSGTDFTLTISSLQPEDFATYYCQQYINYPLTFGGGTKVEIK
notes: In the NanoBRET assay the light chains carried a C-terminal Nanoluc or HaloTag; also called OX40SF2E345R/E430G/S440Y
B3: binds [3]; binds [2].

B4: OX40SF2IgG1V12 (antibody, name in EU numbering)
heavy: QVQLVQSGAEVKKPGSSVKVSCKASGYTFKDYTMHWVRQAPGQGLEWIGGIYPNNGGSTYNQNFKDRVTLTADKSTSTAYMELSSLRSEDTAVYYCARMGYHGPHLDFDVWGQGTTVTVSSASTKGPSVFPLAPSSKSTSGGTAALGCLVKDYFPEPVTVSWNSGALTSGVHTFPAVLQSSGLYSLSSVVTVPSSSLGTQTYICNVNHKPSNTKVDKKVEPKSCDKTHTCPPCPAPDLLGDDSVFLFPPKPKDTLMISRTPEVTCVVVDVSDEDGEVKFNWYVDGVEVHNAKTKPREEQYNSTYRVVSVLTVLHQDWLNGKEYKCKVSNKALPRPIEKTISKAKGQPREPQVYTLPPSRDELTKNQVSLTCLVKGFYPSDIAVEWESNGQPENNYKTTPPVLDSDGSFFLYSKLTVDKSRWQQGNVFSCSVMHEALHNHYTQKSLSLSPGK
VL: DIQMTQSPSSLSASVGDRVTITCKASQDVGAAVAWYQQKPGKAPKLLIYWASTRHTGVPSRFSGSGSGTDFTLTISSLQPEDFATYYCQQYINYPLTFGGGTKVEIK
notes: Full IgG1; Positions are EU Index
With B4 the “HEK-Blue NFκB reporter assay, co-culture with Raji cells; efficacy at 1000 ng/ml against OX40 ligand at the same concentration” value (FcγRIIB on Raji cells) was greater than 2 fold, the EC50 [4] was 0.502 µg/mL and the binding result [1] was “no binding (tested: 1 ng/ml to 10000 ng/ml)”.

B5: OX40SF2IgG1S267E/L328F (antibody, name in EU numbering)
heavy: not shown
VL: DIQMTQSPSSLSASVGDRVTITCKASQDVGAAVAWYQQKPGKAPKLLIYWASTRHTGVPSRFSGSGSGTDFTLTISSLQPEDFATYYCQQYINYPLTFGGGTKVEIK
notes: Full IgG1; Positions are EU Index, not positions on the UniProt entry
With B5 the “HEK-Blue NFκB reporter assay, co-culture with Raji cells; efficacy at 1000 ng/ml against OX40 ligand at the same concentration” value (FcγRIIB on Raji cells) was greater than 2 fold, the EC50 [4] was 0.459 µg/mL and the binding result [1] was “no binding (tested: 1 ng/ml to 10000 ng/ml)”. The EC50 [5] was 0.216 µg/mL and the “fold better potency (against OX40SF2IgG1, reference implied)” value [5] was 20 fold.

B6: OX40SF2IgG1E430G (antibody)
heavy: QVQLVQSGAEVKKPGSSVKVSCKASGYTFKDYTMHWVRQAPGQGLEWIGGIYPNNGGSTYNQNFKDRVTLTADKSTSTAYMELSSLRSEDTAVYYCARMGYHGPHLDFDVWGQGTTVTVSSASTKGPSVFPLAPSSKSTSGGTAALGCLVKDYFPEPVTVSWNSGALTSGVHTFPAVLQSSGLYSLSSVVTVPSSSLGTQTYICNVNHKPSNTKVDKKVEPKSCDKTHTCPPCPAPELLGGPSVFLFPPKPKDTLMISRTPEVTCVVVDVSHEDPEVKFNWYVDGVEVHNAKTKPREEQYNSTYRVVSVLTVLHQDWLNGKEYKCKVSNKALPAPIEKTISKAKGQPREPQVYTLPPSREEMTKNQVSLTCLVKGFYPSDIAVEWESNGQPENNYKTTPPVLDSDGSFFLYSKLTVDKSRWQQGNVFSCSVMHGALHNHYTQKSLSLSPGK
VL: DIQMTQSPSSLSASVGDRVTITCKASQDVGAAVAWYQQKPGKAPKLLIYWASTRHTGVPSRFSGSGSGTDFTLTISSLQPEDFATYYCQQYINYPLTFGGGTKVEIK
notes: as for B1
B6: binds (human OX40 (CD134)).

B7: OX40SF2IgG1E345R (antibody)
heavy: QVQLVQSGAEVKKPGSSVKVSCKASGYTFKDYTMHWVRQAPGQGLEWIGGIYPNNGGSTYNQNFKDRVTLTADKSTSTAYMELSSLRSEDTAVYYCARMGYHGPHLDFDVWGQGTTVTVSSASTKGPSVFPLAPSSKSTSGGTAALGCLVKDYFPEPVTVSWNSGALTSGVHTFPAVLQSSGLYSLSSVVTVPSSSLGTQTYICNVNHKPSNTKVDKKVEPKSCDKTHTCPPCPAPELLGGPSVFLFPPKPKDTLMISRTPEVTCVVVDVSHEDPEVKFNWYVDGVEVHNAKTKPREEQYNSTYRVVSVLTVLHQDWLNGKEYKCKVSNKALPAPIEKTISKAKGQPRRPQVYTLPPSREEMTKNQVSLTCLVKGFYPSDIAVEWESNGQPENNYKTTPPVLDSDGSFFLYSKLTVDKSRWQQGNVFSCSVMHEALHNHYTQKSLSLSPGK
VL: DIQMTQSPSSLSASVGDRVTITCKASQDVGAAVAWYQQKPGKAPKLLIYWASTRHTGVPSRFSGSGSGTDFTLTISSLQPEDFATYYCQQYINYPLTFGGGTKVEIK
notes: as for B1
B7 was tested, and the “HEK-Blue NFκB reporter assay, co-culture with Raji cells against no Raji cells” value (FcγRIIB on Raji cells) was greater than 2 fold and the binding result (human OX40 (CD134)) was “binds”.

B8: anti-FcγRIIB antibody 2B6 (antibody)
chain 1: QVQLQQPVTELVRPGASVMLSCKASDYPFTNYWIHWVKQRPGQGLEWIGVIDPSDTYPNYNKKFKGKATLTVVVSSSTAYMQLSSLTSDDSAVYYCARNGDSDYYSGMDYWGQGTSVTVSS
chain 2: DILLTQSPAILSVSPGERVSFSCRTSQSIGTNIHWYQQRTNGFPRLLIKNVSESISGIPSRFSGSGSGTDFILSINSVESEDIADYYCQQSNTWPFTFGGGTKLEIK
In the case of B8, the EC50 [4] is reported as 0.431 µg/mL.
